Measurements taken from article doi:10.1101/270363.

Target: full length nPIST (1st - 463rd aa) (mouse) (UniProt Q8BH60)
Experiment: SPR

Kd: 13.3 nM
koff: 0.00123 s⁻¹
kon: 92500 M⁻¹ s⁻¹
Substance: F-actin (filamentous actin) (from UniProt P68135 1-377) (natural protein)
